Measurements reported in paper PMC7196598, “Architecture of the herpesvirus genome-packaging complex and implications for DNA translocation” (Protein & Cell, 2020).
Values joined by “and” are separate entries in the source; they are usually repeats but may differ in a detail not shown here. Equal values may be shown once.

B1: HSV1-pUL15 (residues 1–737), ATPase/terminase subunit of the herpesvirus terminase complex (natural protein)
chain: MFGQQLASDVQQYLERLEKQRQLKVGADEASAGLTMGGDALRVPFLDFATATPKRHQTVVPGVGTLHDCCEHSPLFSAVARRLLFNSLVPAQLKGRDFGGDHTAKLEFLAPELVRAVARLRFKECAPADVVPQRNAYYSVLNTFQALHRSEAFRQLVHFVRDFAQLLKTSFRASSLTETTGPPKKRAKVDVATHGRTYGTLELFQKMILMHATYFLAAVLLGDHAEQVNTFLRLVFEIPLFSDAAVRHFRQRATVFLVPRRHGKTWFLVPLIALSLASFRGIKIGYTAHIRKATEPVFEEIDACLRGWFGSARVDHVKGETISFSFPDGSRSTIVFASSHNTNGIRGQDFNLLFVDEANFIRPDAVQTIMGFLNQANCKIIFVSSTNTGKASTSFLYNLRGAADELLNVVTYICDDHMPRVVTHTNATACSCYILNKPVFITMDGAVRRTADLFLADSFMQEIIGGQARETGDDRPVLTKSAGERFLLYRPSTTTNSGLMAPDLYVYVDPAFTANTRASGTGVAVVGRYRDDYIIFALEHFFLRALTGSAPADIARCVVHSLTQVLALHPGAFRGVRVAVEGNSSQDSAVAIATHVHTEMHRLLASEGADAGSGPELLFYHCEPPGSAVLYPFFLLNKQKTPAFEHFIKKFNSGGVMASQEIVSATVRLQTDPVEYLLEQLNNLTETVSPNTDVRTYSGKRNGASDDLMVAVIMAIYLAAQAGPPHTFAPITRVS
notes: pUL15 of herpes simplex virus 1 (HSV1), tripartite terminase subunit 3; construct printed as residues 1–737, while the results say pUL15 is 735 residues in length (domains end at 735); Cloned in pFastBac-HTA; No tag cleavage is described; also called ATPase/terminase pUL15; source: Sf9, co-infected with two recombinant baculoviruses (co-expressed with pUL28 and pUL33), purified (Ni-NTA, Superose …)
B2: herpesvirus terminase complex (heterotrimer of pUL15, pUL28 and pUL33), wild type (complex)
chain 1: B1 chain
chain 2: MAAPVSEPTVARQKLLALLGQVQTYVFQIELLRRCDPHIGRGKLPQLKLNALQVRALRRRLRPGLEAQAGAFLTPLSVTLELLLEYAWREGERLLGSLETFATAGDVAAFFTETMGLARPCPYHQRVRLDTYGGTVHMELCFLHDVENFLKQLNYCHLITPSRGATAALERVREFMVGAVGSGLIVPPELSDPSHPCAVCFEELCVTANQGATIARRLADRICNHVTQQAQVRLDANELRRYLPHAAGLSDADRARALSVLDHALARTAGGDGQPHPSPENDSVRKEADALLEAHDVFQATTPGLYAISELRFWLASGDRAGQTTMDAFASNLTALARRELQQETAAVAVELALFGRRAEHFDRAFGSHLAALDMVDALIIGGQATSPDDQIEALIRACYDHHLTTPLLRRLVSPEQCDEEALRRVLARMGAGGAADAPKGGAGPDDDGDRVAVEEGARGLGAPGGGGEDEDRRRGPGGQGPETWGDIATQAAADVRERRRLYADRLTKRSLASLGRCVREQRGELEKMLRVSVHGEVLPATFAAVANGFAARARFCALTAGAGTVIDNRSAPGVFDAHRFMRASLLRHQVDPALLPSITHRFFELVNGPLFDHSTHSFAQPPNTALYYSVENVGLLPHLKEELARFIMGAGGSGADWAVSEFQRFYCFDGISGITPTQRAAWRYIRELIIATTLFASVYRCGELELRRPDCSRPTSEGRYRYPPGVYLTYDSDCPLVAIVESAPDGCIGPRSVVVYDRDVFSILYSVLQHLAPRLPDGGHDGPP
chain 3: MAGREGRTRQRTLRDTIPDCALRSQTLESLDARYVSRDGAHDAAVWFEDMTPAELEVVFPTTDAKLNYLSRTQRLASLLTYAGPIKAPDDAAAPQTPDTACVHGELLAAKRERFAAVINRFLDLHQILRG
notes: pUL15 of herpes simplex virus 1 (HSV1); construct printed as residues 1–737, while the results say pUL15 is 735 residues in length; pUL28 of herpes simplex virus 1 (HSV1); construct printed as residues 1–787; pUL33 of herpes simplex virus 1 (HSV1); construct printed as residues 1–132; One heterotrimer is one subunit of the hexameric ring; the hexamer and dodecamer are written as self-association …

What was measured:
[1] = target: the molecule itself; experiment: cryo-EM structure; purified terminase complex (1 mg/mL), apo or with ADP•BeF3 and pac2 DNA (58 bp; DNA not visible); hexameric and dodecameric assemblies, block-based reconstruction of one terminase complex
[2] = target: the molecule itself; experiment: AUC; sedimentation velocity, Beckman XL-I, 20 °C, 20 mmol/L Hepes, 300 mmol/L NaCl, pH 7.5, A280 ~0.8, 20,000 rpm; shown with SDS-PAGE and electron microscopy (Fig. 1B)

Protein	binding result [1]	stoichiometry N [2]
B1	binds	
B2		6 and 12
